Laboratory results published in the supplement of paper PMC10567573.
± gives the standard deviation.

Assay: protein stability index of a GFP-peptide fusion (GPS, HEK-293T) (PSI 1-6); higher = more stable
Settings: c terminus: a fixed tail appended
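Further: 24-mer peptide tiles fused after GFP, lentivirally expressed, FACS-sorted into six equal bins by GFP/DsRed ratio, decoded by Illumina sequencing, PSI is the read-weighted mean bin number.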

Row | Sequence | protein stability index (treatment: DMSO) | protein stability index (treatment: MLN4924 1 uM, 8 h)
1 | TALVGLRQNLSKSWLDVQVSNTYV [TPD52L3] | 2.39 ± 0.96 | 2.19 ± 0.53
2 | ALTGHLRTHSVIKEETNHSEMAED [IKZF1] | 5.38 ± 0.23 | 5.13 ± 0.31
3 | NLFCVLRLVVEFPATGGAIPSWQI [PKD2L1] | 3.39 ± 0.28 | 3 ± 0.5
4 | ISDNPERYSTNLSNHVDDFTTFRG [EDNRA] | 3.87 ± 0.34 | 3.95 ± 0.42
5 | ELTLARTDLEMQIEGLKEELAYLR [KRT16] | 2.95 ± 0.61 | 2.79 ± 0.44
6 | WATIEGLVELLQPFKQVAEMLSAS [ZBED1] | 3.01 ± 0.76 | 2.94 ± 0.8
7 | KEGPMIHSGSVVGAGLPQFQSISL [CLCN6] | 2.91 ± 0.12 | 2.86 ± 0.35
8 | KPFVSVFRHLRLQYIISDLASARI [GMCL1] | 3.07 ± 0.69 | 2.78 ± 0.85
9 | VRKREAPAPEAESKQTEKDPGVQE [EFHC1] | 5.47 ± 0.27 | 5.61 ± 0.34
10 | MRRMVATWMLEVCEEQKCEEEVFP [CCND2] | 2.9 ± 0.46 | 3.14 ± 0.045
11 | YKIVKPLWTSFIQSVSYSKLLSVI [P2RY14] | 2.06 ± 0.16 | 2.36 ± 0.39
12 | KNDGRIDAQEIMQSLRDLGVKISE [SLC25A25] | 3.19 ± 0.21 | 3.29 ± 0.27
13 | RNSKASAYCLDQGAEDGDRAILYP [GALNT9] | 4.32 ± 0.3 | 4.4 ± 0.2
14 | LLCVNYFFYGETVTDYFFTLVQRE [CDS2] | 2.9 ± 0.36 | 3.2 ± 0.41
15 | LWWDPIQRLLFSGASDNSIIMWDI [WDFY1] | 2.65 ± 0.54 | 2.69 ± 0.83
16 | KEHAVTMPCTWVMACAYAPSGCAI [GNB5] | 2.8 ± 0.36 | 2.49 ± 0.59
17 | YPHCTGISQQDPESDSQGQGNGLF [ZC2HC1C] | 3.82 ± 0.23 | 4.43 ± 0.48
18 | MAEAAALVWIRGPGFGCKAVRCAS [SDE2] | 2.45 ± 0.47 | 2.35 ± 0.53
19 | FYQHLLLYIQSHYQLELQCCIDWT [SMG5] | 3.17 ± 0.36 | 3.02 ± 0.38
20 | SPFTNLLNGSSQPTTRNYPELNNN [CDC14A] | 4.04 ± 0.1 | 4.26 ± 0.16
21 | TVDLELELQIELLRETKRKYESVL [ARFIP2] | 2.71 ± 0.19 | 2.91 ± 0.22
22 | LEVPKPGQPSEPEHGPSPGQDTFC [CHIT1] | 5.22 ± 0.17 | 5.23 ± 0.19
23 | AVSDGRHMFVWGGYKSNQVRGLYD [KLHDC2] | 2.28 ± 0.58 | 2.27 ± 0.51

Row | Sequence | protein stability index (treatment: DMSO) | protein stability index (treatment: MLN4924 1 uM, 8 h)
24 | YKMFASRRKQRYWPFSMDCTGTEA [LOXL2] | 2.3 ± 0.27 | 2.15 ± 0.33
25 | IQENQRNLYEEGRTAFLWRGNVVL [TRIM43] | 2.21 ± 0.43 | 2.61 ± 0.37
26 | PSLEDISCNTWPSMPSYSSCTVTT [TBX5] | 3.18 ± 0.21 | 3.41 ± 0.24
27 | TLGEVPAAESPDPPQSPQGASSLP [MAGEA3] | 5.5 ± 0.22 | 5.37 ± 0.1
28 | SSHMNIDITDDCICDLARSIDFNK [PPEF2] | 3.67 ± 0.35 | 3.89 ± 0.19
29 | VERPHSGLPGKVFACLSVLFVTVT [KCNG1] | 3.03 ± 0.73 | 2.52 ± 0.38
30 | KTTIPEEEEEEEEAAGVVVEEELF [LMNB1] | 5.55 ± 0.29 | 5.62 ± 0.2
31 | VHQRGSSTAKKEDINLSVRKLLNR [TRIP13] | 3.72 ± 0.31 | 3.87 ± 0.25
32 | ETRVWHRRDGKWQNVHFHRSGSPT [CAMK2D] | 3.74 ± 0.35 | 3.71 ± 0.17
33 | CVPPSEFSEPSFITESYQTLHPIS [ETS1] | 2.98 ± 0.19 | 3.08 ± 0.16
34 | HTKELEDKVIELHKSHRGMTPAEA [EPB41L3] | 5.2 ± 0.24 | 5.13 ± 0.16
35 | PTPAKRRSSALWSEMLDITMKESL [NET1] | 2.71 ± 0.5 | 3.15 ± 0.48
36 | LLGWGYYLIMLPFRFTYYTILDIF [FAF2] | 4.59 ± 0.36 | 4.7 ± 0.17
37 | LTEQQEQLRGQLQDLDSRLRAGSS [RASAL3] | 5.08 ± 0.18 | 5.19 ± 0.23
38 | DAENQKNWLDPAKEIKKQVRSGAW [EPB41L3] | 3.55 ± 0.5 | –
39 | TTFRGHTGGVTALCWDPVQRVLFS [WDFY2] | 2.25 ± 0.23 | 2.26 ± 0.23
40 | EEKVRDLLWAKFTNSDTPTSFNHM [TOR1AIP2] | 3.08 ± 0.12 | 3.19 ± 0.13
41 | DNLLPGMQPSKPQQPSLNTMIQQQ [CLINT1] | 4.38 ± 0.29 | 4.45 ± 0.28
42 | EGTFRPERLLAVAERYGLSGSDVL [RAD51] | 3.23 ± 0.18 | 3.45 ± 0.11
43 | GAHEQVDFKDFYPAIADLFAESLQ [P3H4] | 2.84 ± 0.51 | 3.08 ± 0.53
44 | RQHIPDTYLCERCQPRNLDKERAV [KMT2E] | 2.81 ± 0.47 | 3.35 ± 0.15
45 | AVADSIPQVLADLGSFESPANSET [PCDHGA10] | 5.07 ± 0.54 | 5.35 ± 0.2
46 | TVTVISPLELMRTKLQAQHVSYRE [SLC25A39] | 2.65 ± 0.41 | 2.81 ± 0.22

Row | Sequence | protein stability index (treatment: DMSO) | protein stability index (treatment: MLN4924 1 uM, 8 h)
47 | ELIGACEFMKDRLYFATLRNRPKS [CDC14A] | 2.1 ± 0.5 | 2.24 ± 0.19
48 | IDKGDIPDLTQAPSSLMETLEQHL [SNAP91] | 4.11 ± 0.22 | 4.08 ± 0.33
49 | SWGWDLGRNRLYHDGKNQPSKTYP [SPSB1] | 3.65 ± 0.094 | 3.53 ± 0.34
50 | LMDCCLIVYHPYRPLLQYVQDMGQ [CCNC] | 3.26 ± 0.83 | 3.17 ± 0.55
51 | KSKTRSLLKRMESLKLKSSHHSKH [DLC1] | 3.48 ± 0.14 | 3.53 ± 0.16
52 | LNYLRDGSVPLPESTRELGELLGE [KCTD13] | 4.5 ± 0.21 | 4.64 ± 0.24
53 | EANSAKVQEDLEAEFQSLFSLLEE [FSD1] | 5.02 ± 0.09 | 5.05 ± 0.12
54 | VAMLGVFLVSAVAHEYIFCFVLGF [SOAT2] | 3.21 ± 0.36 | 3.14 ± 0.5
55 | AAALKCQLCEKAPKEATVMCEQCD [TRIM9] | 5.33 ± 0.22 | 5.4 ± 0.15
56 | TLGQAWQGYVSDIRRFLSAFHEPQ [DFFB] | 2.29 ± 0.18 | 2.04 ± 0.22
57 | GSTLGGSSYSSCYSFGSGGGYGSS [KRT17] | 2.77 ± 0.23 | 2.98 ± 0.6
58 | KGKYNISSEDYRQLELVILQSEPH [KCNK9] | 2.87 ± 0.28 | 2.93 ± 0.29
59 | QWWASVGMDDFLGVYSMPAGTKVF [TLE6] | 2.23 ± 0.82 | 2.26 ± 0.45
60 | NVSTKEGIHLALVELLKNLTKYPT [INTS4] | 2.53 ± 0.36 | 2.5 ± 0.25
61 | QLQCSPAELQAELLHSQARLAELE [FBF1] | 3.88 ± 0.41 | 3.98 ± 0.26
62 | LCSDLEEAPEAELSQAPAEGPDLV [HES6] | 5.61 ± 0.12 | 5.57 ± 0.3
63 | LTEQVWKVQDALQNQSDSLLALAG [SCARA5] | 3.65 ± 0.16 | 3.82 ± 0.37
64 | KPYDPPGEKMVAAKVKGEKLDKKL [ATF4] | 5.12 ± 0.21 | 5.12 ± 0.056
65 | ADEGSRNSRFQMLFTSFQEPPCEG [NETO1] | 3.98 ± 0.094 | 4.17 ± 0.22
66 | SMQCKVILLDGSEYTCDVEKRSRG [EPB41L3] | 3.04 ± 0.29 | 3.61 ± 0.3
67 | ADISMIGQFGVGFYSAYLVAEKVV [HSP90AB1] | – | 2.86 ± 0.44
68 | SDGSCKTAGEMVFVYENAKEGARN [BTBD10] | 4.31 ± 0.18 | 4.48 ± 0.16
69 | RWDPVRRRFIQSCPIIRIPNRFLR [KLHDC10] | 2.48 ± 0.42 | 2.49 ± 0.2

Row | Sequence | protein stability index (treatment: DMSO) | protein stability index (treatment: MLN4924 1 uM, 8 h)
70 | GLIISGPILQEGMDEEKLKQLNCV [DLC1] | 3.52 ± 0.2 | 3.42 ± 0.3
71 | QSSHYLQWILDKQDLLKERQKDLK [CCNC] | 2.87 ± 0.36 | 3.16 ± 0.27
72 | KYDMEVRVQKTSKELEDMNQKLFD [TNNI2] | 4.81 ± 0.13 | 4.73 ± 0.2
73 | GKEPLDPDPSHSPSDKVGRADAHL [TOR1AIP2] | 5.07 ± 0.17 | 5.32 ± 0.057
74 | PAPGKLLGPCVVGYGIYYFIYSTW [SAT2] | 2.62 ± 0.65 | 2.92 ± 0.46
75 | VKNDRDRVGHKSIPMRNLRARPAK [SERPINB5] | 3.98 ± 0.35 | 4.4 ± 0.11
76 | VKTRLEQEIATYRRLLEGEDAHLT [KRT17] | 3.62 ± 0.14 | 3.77 ± 0.3
77 | ANKYLVEDVLLLNFEEMRALLDSL [KLHL14] | 2.34 ± 0.21 | 2.37 ± 0.19
78 | TLVDESDLYNWEVAIFGPPNTLYE [UBE2R2] | 2.71 ± 0.17 | 2.81 ± 0.17
79 | FQVLCSINSIIHNPRAPVIIYKQT [CEP70] | 2.76 ± 0.83 | 2.6 ± 1.1
80 | FSTRALVLSILHATLPGIFMLLLI [SOAT2] | 3.16 ± 0.35 | 3.37 ± 0.52
81 | YVYKPVMNQTCCPQYTIRCRPLQF [ATE1] | 2.65 ± 0.64 | 2.3 ± 0.33
82 | NHDSHMAKERAHSTASHSSSNSED [PDZK1] | 5.59 ± 0.17 | 5.61 ± 0.23
83 | LDPQPITDEEEGLIWVVGPVLAVV [PTPRD] | 2.02 ± 0.41 | 2.42 ± 0.27
84 | EVVMNSQQTPVGTPKDKRVSNTPL [PALM] | 3.44 ± 0.2 | 3.61 ± 0.2
85 | VNSVCWASLNHLDSHILLCLMGLA [DCAF4] | 2.51 ± 0.63 | 2.69 ± 0.36
86 | SSRVIAASYDKTVRAWDLETGKLL [WDR88] | 2.76 ± 0.39 | 3.04 ± 0.29
87 | VLMIAIQLISRMEYVHSKNLIYRD [CSNK1G3] | 2.86 ± 0.13 | 2.72 ± 0.44
88 | QGGSLPSEEKGHPQEESEESNVSM [CHGB] | 5.59 ± 0.24 | 5.53 ± 0.25
89 | LHSSILTCTLLLLYSLAPTMGAVV [MFSD9] | 3.36 ± 0.4 | 2.94 ± 0.24
90 | GGYTPDLKMSYSRGLIPVKRGPSS [RBMY1A1] | 3.9 ± 0.14 | 3.8 ± 0.28
